Source: US10766960 (dated 2020)
Where a chain is given by its changes, count along the chain named. Where two headings read alike, the source gives them in different places. One block for each binder: values may come before it.

Legend:
Test in all cases: SPR
FcgRIIb [1] = target: T1, FcgRIIb (human, UniProt P31994)
T1 chain: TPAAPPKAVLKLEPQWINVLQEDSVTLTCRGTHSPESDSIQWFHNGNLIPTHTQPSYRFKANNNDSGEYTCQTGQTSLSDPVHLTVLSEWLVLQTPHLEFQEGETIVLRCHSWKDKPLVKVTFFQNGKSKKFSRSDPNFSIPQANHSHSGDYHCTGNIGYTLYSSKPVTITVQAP

FcgRIIIa V [2] = target: T2, FcgRIIIa V (human, UniProt P08637)
FcgRIIIa F [3] = target: T3, FcgRIIIa F (human, UniProt P08637)
FcgRIa [4] = target: T4, FcgRIa (human, UniProt P12314)
T4 chain: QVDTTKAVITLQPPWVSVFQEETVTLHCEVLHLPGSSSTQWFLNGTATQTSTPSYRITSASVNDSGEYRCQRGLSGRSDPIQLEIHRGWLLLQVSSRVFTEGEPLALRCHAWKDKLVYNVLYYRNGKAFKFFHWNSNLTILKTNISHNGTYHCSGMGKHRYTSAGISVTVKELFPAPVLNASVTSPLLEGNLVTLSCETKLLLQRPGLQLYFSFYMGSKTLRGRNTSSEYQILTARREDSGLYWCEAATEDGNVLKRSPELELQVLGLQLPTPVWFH

FcgRIIa H [5] = target: T5, FcgRIIa H (human, UniProt P12318)
T5 chain: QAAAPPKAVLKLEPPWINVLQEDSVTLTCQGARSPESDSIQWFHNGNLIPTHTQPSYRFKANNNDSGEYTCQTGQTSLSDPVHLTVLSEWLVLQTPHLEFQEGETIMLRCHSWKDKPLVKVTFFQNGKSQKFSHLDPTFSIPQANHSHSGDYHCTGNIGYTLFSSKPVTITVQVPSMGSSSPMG

FcgRIIa R [6] = target: T6, FcgRIIa R (human, UniProt P12318)
T6 chain: T5 chain with H134R

FcgRIIa H [7] = target: T5, FcgRIIa H
FcgRIIIa V [8] = target: T2, FcgRIIIa V; remark: listed apart in the source
FcgRIIIa F [9] = target: T3, FcgRIIIa F; remark: listed apart in the source
FcgRIIa R [10] = target: T6, FcgRIIa R
FcgRIIb [11] = target: T1, FcgRIIb
FcgRIa [12] = target: T4, FcgRIa

T2 sequence (P08637 17-208 F176V): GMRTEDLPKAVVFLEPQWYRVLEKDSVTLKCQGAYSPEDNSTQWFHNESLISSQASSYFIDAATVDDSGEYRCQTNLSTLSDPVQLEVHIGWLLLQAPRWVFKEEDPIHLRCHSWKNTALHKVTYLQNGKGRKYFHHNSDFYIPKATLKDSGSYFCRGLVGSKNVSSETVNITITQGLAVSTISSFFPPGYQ
T3 sequence (P08637 17-208): as the sequence (P08637 17-208 F176V) above, with V160F counted along it

B1: H240-Kn210/H240-Hl076/L73-k0 (antibody)
chain 1: QDQLVQSGAEVKKPGASVKVSCKASGFNIKDTYIQWVRQAPGQGLEWMGRIDPLRKQTKYREKFEGRVTITADTSTNTAYMELSSLRSEDTAVYYCVRSGREFDYWGQGTLVTVSSASTKGPSVFPLAPSSKSTSGGTAALGCLVKDYFPEPVTVSWNSGALTSGVHTFPAVLQSSGLYSLSSVVTVPSSSLGTQTYICNVNHKPSNTKVDKKVEPKSCDKTHTCPPCPAPEIQWGPMVFLFPPKPKDTLMISRTPEVTCVVVDVSDEEPEVKFNWYVDGVEVHNAKTKPREEQYNATYRVVSVLTVLHQDWLNGKEYKCKVSNKALPAPIEKTISKAKGQPREPQVCTLPPSRDELTKNQVSLWCLVKGFYPSDIAVEWESNGQPENNYKTTPPVLDSDGSFFLYSKLTVDKSRWQQGNVFSCSVMHEALHNHYTQKSLSLSP
chain 2: QDQLVQSGAEVKKPGASVKVSCKASGFNIKDTYIQWVRQAPGQGLEWMGRIDPLRKQTKYREKFEGRVTITADTSTNTAYMELSSLRSEDTAVYYCVRSGREFDYWGQGTLVTVSSASTKGPSVFPLAPSSKSTSGGTAALGCLVKDYFPEPVTVSWNSGALTSGVHTFPAVLQSSGLYSLSSVVTVPSSSLGTQTYICNVNHKPSNTKVDKKVEPKSCDKTHTCPPCPAPELLGGPSVFLFPPKPKDTLMISRTPEVTCVVVDVSHEEPEVKFNWYVDGVEVHNAKTKPREEQYNSTYRVVSVLTVLHQDWLNGKEYKCKVSNDALPMPIEETISKAKGQPREPQVYTLPPSRCELTKNQVSLSCAVKGFYPSDIAVEWESNGQPENNYKTTPPVLDSDGSFFLVSKLTVDKSRWQQGNVFSCSVMHEALHNHYTQKSLSLSP
chain 3: DIQMTQSPSSLSASVGDRVTITCRASQDIHKYIAWYQQKPGQAPRLLIQYTSTLQPGVPSRFSGSGSGTDYTFTISSLQPEDIATYYCLQYEQLRTFGGGTKVEIKRTVAAPSVFIFPPSDEQLKSGTASVVCLLNNFYPREAKVQWKVDNALQSGNSQESVTEQDSKDSTYSLSSTLTLSKADYEKHKVYACEVTHQGLSSPVTKSFNRGEC
Kd (FcgRIIb [1]): 4200 nM | Kd (FcgRIIIa V [2]): 0.49 nM | Kd (FcgRIIIa F [3]): 1.8 nM | Kd (FcgRIa [4]): 0.079 nM | Kd (FcgRIIa H [5]): 150 nM | Kd (FcgRIIa R [6]): 590 nM

B2: H240-FA020/H240-FB084/L73-k0 (antibody)
chain 1: B1 chain 1 with Q195K, I198T, I233Y, Q234Y, M238S, C348Y, D355K, L357K, W365T, H434R
chain 2: QDQLVQSGAEVKKPGASVKVSCKASGFNIKDTYIQWVRQAPGQGLEWMGRIDPLRKQTKYREKFEGRVTITADTSTNTAYMELSSLRSEDTAVYYCVRSGREFDYWGQGTLVTVSSASTKGPSVFPLAPSSKSTSESTAALGCLVEDYFPEPVTVSWNSGALTSGVHTFPAVLQSSGLYSLSSVVTVPSSNFGTQTYTCNVDHKPSNTKVDKTVEPKSCDKTHTCPPCPAPELLGGPSVFLFPPKPKDTLMISRTPEVTCVVVDVSHEEPEVQFNWYVDGVEVHNAETKPREEQYNSTYRVVSVLTVLHQDWLNGKEYKCKVSNDALPMPIEETISKAKGQPREPQVYTLPPSREEMTKNQVSLTCLVKGFYPSDIAVEWESEGQPENNYKTTPPVLDSDGSFFLYSKLTVDKSRWQQGNVFSCSVMHEALHNHYTQESLSLSP
chain 3: B1 chain 3
Kd (FcgRIIa H [7]): 57 nM | Kd (FcgRIIIa V [8]): 1 nM | Kd (FcgRIIIa F [9]): 3.5 nM | Kd (FcgRIIa R [10]): 220 nM | Kd (FcgRIIb [11]): 1400 nM | Kd (FcgRIa [12]): 0.068 nM

B3: H240-Kn209/H240-Hl076/L73-k0 (antibody)
chain 1: B1 chain 1 with I233Q
chain 2: B1 chain 2
chain 3: B1 chain 3
Kd (FcgRIIb [1]): 7500 nM | Kd (FcgRIIIa V [2]): 0.62 nM | Kd (FcgRIIIa F [3]): 2.4 nM | Kd (FcgRIa [4]): 0.083 nM | Kd (FcgRIIa H [5]): 250 nM | Kd (FcgRIIa R [6]): 1200 nM

B4: H240-Kn212/H240-Hl076/L73-k0 (antibody)
chain 1: B1 chain 1 with I233T
chain 2: B1 chain 2
chain 3: B1 chain 3
Kd (FcgRIIb [1]): 5200 nM | Kd (FcgRIIIa V [2]): 0.58 nM | Kd (FcgRIIIa F [3]): 2.1 nM | Kd (FcgRIa [4]): 0.094 nM | Kd (FcgRIIa H [5]): 230 nM | Kd (FcgRIIa R [6]): 640 nM

B5: H240-FA030/H240-FB083/L73-k0 (antibody)
chain 1: QDQLVQSGAEVKKPGASVKVSCKASGFNIKDTYIQWVRQAPGQGLEWMGRIDPLRKQTKYREKFEGRVTITADTSTNTAYMELSSLRSEDTAVYYCVRSGREFDYWGQGTLVTVSSASTKGPSVFPLAPSSKSTSGGTAALGCLVKDYFPEPVTVSWNSGALTSGVHTFPAVLQSSGLYSLSSVVTVPSSSLGTKTYTCNVNHKPSNTKVDKKVEPKSCDKTHTCPPCPAPEYYWGPSVFLFPPKPKDTLMISRTPEVTCVVVDVSDEEPKVKFNWYVDGVEVHNAKTKPREEQYNATYRVVSVLTVLHQDWLNGKEYKCKVSNKALPAPIEKTISKAKGQPREPQVYTLPPSRKEMTKNQVSLTCLVKGFYPSDIAVEWESNGQPENNYKTTPPVLDSDGSFFLYSKLTVDKSRWQQGNVFSCSVMHEALHNRYTQKSLSLSP
chain 2: B2 chain 2 with E383N
chain 3: B1 chain 3
Kd (FcgRIIa H [7]): 82 nM | Kd (FcgRIIIa V [8]): 1.2 nM | Kd (FcgRIIIa F [9]): 3.9 nM | Kd (FcgRIIa R [10]): 280 nM | Kd (FcgRIIb [11]): 1500 nM | Kd (FcgRIa [12]): 0.081 nM

The remaining lines, values ahead:

Kd (FcgRIIa H [7]): 72 nM | Kd (FcgRIIIa V [8]): 0.89 nM | Kd (FcgRIIIa F [9]): 4.3 nM | Kd (FcgRIIa R [10]): 270 nM | Kd (FcgRIIb [11]): 1400 nM | Kd (FcgRIa [12]): 0.051 nM
B6: H240-FA009/H240-FB052/L73-k0 (antibody)
chain 1: B5 chain 1 with T198I, K271E
chain 2: B1 chain 2 with K213T, K273Q, C355E, L357M, S365T, A367L, V406Y, K438E
chain 3: B1 chain 3

Kd (FcgRIIa H [7]): 96 nM | Kd (FcgRIIIa V [8]): 1.5 nM | Kd (FcgRIIIa F [9]): 5.3 nM | Kd (FcgRIIa R [10]): 290 nM | Kd (FcgRIIb [11]): 1800 nM | Kd (FcgRIa [12]): 0.057 nM
B7: H240-FA030/H240-FB064/L73-k0 (antibody)
chain 1: B5 chain 1
chain 2: B2 chain 2 with E146K, E287K, E383N
chain 3: B1 chain 3

Kd (FcgRIIa H [7]): 77 nM | Kd (FcgRIIIa V [8]): 1.3 nM | Kd (FcgRIIIa F [9]): 3.5 nM | Kd (FcgRIIa R [10]): 250 nM | Kd (FcgRIIb [11]): 1300 nM | Kd (FcgRIa [12]): 0.038 nM
B8: H240-FA020/H240-FB059/L73-k0 (antibody)
chain 1: B5 chain 1 with K271E, M357K
chain 2: B2 chain 2 with E136G, S137E, N191S, F192L, T198I, D202N, T213K, E383N
chain 3: B1 chain 3
